In JP2011016773A:

Molecular target: HAMA血清タイプ1(Roche製、品番:1767275)
Experiment: forward sandwich ELISA, inhibition of HAMA bridging of anti-hCEA antibodies, blocker solution at 1 ug/ml

## マウスIgG(CHEMICON製、品番:PP54) (antibody)
  HAMA回避効果: 61%

## Heterophilic Blocking Reagent1 (SCANTIBODIES LABORATORY，INC.製、品番:3KC534−075)
  HAMA回避率: 68%

## MAK33−IgG1(Roche製、品番:1200941) (antibody)
  HAMA回避率: 69%
